Common to all, as to test: SPR
Assay [1] deals with Biotinylated CD28CD 25-mer peptide (residues 194 to 218) phosphorylated at Tyr207 (mouse).
Assay [2] deals with Lck SH2 domain (residues 122 to 226) (mouse, UniProt P06240 122-226).
Assay [3] has as its target Murine full-length Lck (amino acid residues 6 to 509) (mouse, UniProt P06240 6-509, phosphotyrosine at 505).

Substitutions are numbered along the chain they refer to. Numbers in names are those of the source. Non-standard residues stand in square brackets, D forms with d. No end group written: not given here. pY = N[C@@H](Cc1ccc(OP(=O)(O)O)cc1)C(=O)O

Chain of Murine full-length Lck (amino acid residues 6 to 509) (P06240 6-509): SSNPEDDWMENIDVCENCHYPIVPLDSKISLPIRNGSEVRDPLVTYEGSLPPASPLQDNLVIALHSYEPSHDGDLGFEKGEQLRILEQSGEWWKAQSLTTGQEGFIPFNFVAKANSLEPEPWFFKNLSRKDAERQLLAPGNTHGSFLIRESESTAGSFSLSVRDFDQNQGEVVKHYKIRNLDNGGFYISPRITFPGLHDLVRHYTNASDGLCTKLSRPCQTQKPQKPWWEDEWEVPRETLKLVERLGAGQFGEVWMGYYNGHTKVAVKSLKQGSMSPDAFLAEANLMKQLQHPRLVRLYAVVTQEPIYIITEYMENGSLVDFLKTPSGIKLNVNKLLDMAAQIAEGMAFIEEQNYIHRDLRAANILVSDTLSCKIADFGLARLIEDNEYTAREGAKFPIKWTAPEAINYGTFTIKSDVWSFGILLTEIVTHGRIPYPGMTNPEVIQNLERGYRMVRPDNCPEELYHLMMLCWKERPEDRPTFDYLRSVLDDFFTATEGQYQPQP
Chain of Lck SH2 domain (residues 122 to 226) (P06240 122-226): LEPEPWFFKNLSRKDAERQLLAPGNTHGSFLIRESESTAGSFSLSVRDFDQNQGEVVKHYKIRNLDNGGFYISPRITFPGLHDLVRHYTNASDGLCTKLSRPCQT

“Lck SH2 domain (residues 122 to 226) (from UniProt P06240 122-226) (domain or fragment)” gave a Kd in assay [1] of 10 µM. Take PRRPGLTRKPYQA[pY]AAARDFAAYRP (peptide, UniProt P31041 194-218, looked up, also: biotinylated, position not given here) [Biotinylated CD28CD 25-mer peptide phosphorylated at Tyr207, double mutant P206A/P209A]: the Kd in assay [2] amounted to 63.7 µM.

B1: CD28WT cytoplasmic domain (CD28CD), disulfide-linked dimer (domain or fragment, mouse)
chain: CNSRRNRLLQSDYMNMTPRRPGLTRKPYQPYAPARDFAAYRP
modifications: disulfide between the added N-terminal cysteines of the two chains (oxidized with 1 mM GSSG)
Molecule B1 showed a Kd in assay [3] of 0.199 µM.

B2: CD28 Mut5 cytoplasmic domain, disulfide-linked dimer (domain or fragment, mouse)
chain: B1 chain with P30A, P33A
modifications: disulfide between the added N-terminal cysteines of the two chains (oxidized with 1 mM GSSG)
The molecule B2 gave a Kd in assay [3] of 0.187 µM. This Kd and that of the molecule before are within 1.5-fold of each other.
